Assay: soluble on expression in E. coli; label from the status in PepcDB or PDB records

| Sequence | soluble on expression in E. coli |
| --- | --- |
| MTEAQRHQILLEMLAQLGFVTVEKVVERLGISPATARRDINKLDESGKLKKVRNGAEAITQQRPRWTPMNLHQAQNHDEKVRIAKAASQLVNPGESVVINCGSTAFLLGREMCGKPVQIITNYLPLANYLIDQEHDSVIIMGGQYNKSQSITLSPQGSENSLYAGHWMFTSGKGLTAEGLYKTDMLTAMAEQKMLSVVGKLVVLVDSSKIGERAGMLFSRADQIDMLITGKNANPEILQQLEAQGVSILRVLEHHHHHH | not soluble |
| MSKSWGKFIEEEEAEMASRRNLMIVDGTNLGFRFKHNNSKKPFASSYVSTIQSLAKSYSARTTIVLGDKGKSVFRLEHLPEYAGNRDEKYAQRTEEEKALDEQFFEYLKDAFELCKTTFPTFTIRGVEADDMAAYIVKLIGHLYDHVWLISTDGDWDTLLTDKVSRFSFTTRREYHLRDMYEHHNVDDVEQFISLKAIMGDLGDNIRGVEGIGAKRGYNIIREFGNVLDIIDQLPLPGKQKYIQNLNASEELLFRNLILVDLPTYCVDAIAAVGQDVLDKFTKDILEIAEQ | soluble |
| MKVDGRRPEDEVIRETNAHGVSVVHIKKDPTTQKVEIVKNSIFNRRITASTVMEFAGAAAGSSLLATRFSPAGRQTRGTHNNCGNGYTPWGTYLTTEENFIGYFQRSGSDEYARTDAEKIALKRYGLGVKKDEPYLYEKDEKGAPKKDKDGKIIYLKDKNGELIPNVDEQGRQIYLGTSSRYGWETAIGQVESQDLYDRWNADVKAAQATQDYRNGPNTFGWMVEIDPFDGRQNPVKRTSLGRFAHEDSACRAVVGQPLAFYMGDDSRGEYIYKFVSTAVWDTKDINGGYTAGDKYMNAGKLYVAKFNNDGSGQWIELAYGKNGLNESNTTYPFKSQADVVTFARLAADSVGATKMDRPEWCTVNPVNGEIYVTLTNNSNRGKDYATDAANPRNYTDLYAGTKEQKGNVNGHIIRFKETDDKTTAETFKWDIYLFGAEASMASNINLSGLTDNNDFSSPDGMWFDPRGVLWIETDDGAYTDVTNCMMLAALPGQIGDGGTATTSNGQQTITGAKVTDATLRRFLVGPKQCEITGIAMTPDYKAIFINVQHPGEDSPSYAKPESNWPATQKDPSNKTARPRSATVVITRKDGGVIAGLEHHHHHH | soluble |
| MGSDKIHHHHHHMKPENLVKAVKILDNHIPKELDDPNSIAQAAEKLELKNFSQSELVNGFNLFFAQRFEDRLQIFNRITPPVIGDLMALVTEKLGLAKQEIFDPEIVFPDLIFQFASHFGQSIYGRAADQIIDASLKKLANIYRFDFTDSDHEKIVVSRILGIDFAAEMNHFFKASNLKVGESAILLVNNSDLQSNSFAEILKKNKNMALLAIIELPTKLFKHSEMRSSLLILRRKVDNEKVTAQVLLAQIPELSNKEDFSKFVSQLETWKKENL | not soluble |
| MEKVNEILSQLTLEEKVKLVVGVGLPGLFGNPHSRVAGAAGETHPVPRVGLPAFVLADGPAGLRINPTRENDENTYYTTAFPVEIMLASTWNRELLEEVGKAMGEEVREYGVDVLLAPAMNIHRNPLCGRNFEYYSEDPVLSGEMASSFVKGVQSQGVGACIKHFVANNQETNRMVVDTIVSERALREIYLRGFEIAVKKSKPWSVMSAYNKLNGKYCSQNEWLLKKVLREEWGFEGFVMSDWYAGDNPVEQLKAGNDLIMPGKAYQVNTERRDEIEEIMEALKEGKLSEEVLDECVRNILKVLVNAPSFKNYRYSNKPDLEKHAKVAYEAGAEGVVLLRNEEALPLSENSKIALFGTGQIETIKGGTGSGDTHPRYAISILEGIKERGLNFDEELAKTYEDYIKKMRETEEYKPRRDSWGTIIKPKLPENFLSEKEIHKLAKKNDVAVIVISRISGEGYDRKPVKGDFYLSDDETDLIKTVSREFHEQGKKVIVLLNIGSPVEVVSWRDLVDGILLVWQAGQETGRIVADVLTGRINPSGKLPTTFPRDYSDVPSWTFPGEPKDNPQKVVYEEDIYVGYRYYDTFGVEPAYEFGYGLSYTTFEYSDLNVSFDGETLRVQYRIENTGGRAGKEVSQVYIKAPKGKIDKPFQELKAFHKTRLLNPGESEEVVLEIPVRDLASFNGEEWVVEAGEYEVRVGASSRNIKLKGTFSVGEERRFKP | soluble |
| MGSDKIHHHHHHMRLSNGDVIVFAGDSITDREKSNNAPLGYGYVNLFYNLMLAKHPETKITVINSGISGNTVIDLIDRWDDDVLSYKPNWISILIGINDLHKFLGGLTTFNPENYYENLRRLLKYTRKVLNNVNFILMTPFYISRNKLEGGFRAKVLELLPQYIEKVRLLSNEFSATYIDLHDTFKKLVNIREPNVYAPEPVHPNFTGHMVIALKLLEALEI | not soluble |
| MNKFFSADKKGGEKRRKKSKKKVRIVGMSEIGIWRQDDTMRIVHLSVWCILKRTTASLSGNEWKLSTRHANDGYIVRSPPTISGPERLQENGYVIWILL | not soluble |
| MGSDKIHHHHHHMTVIDLSALDPPDLVETLDFEAAYQYKLQHFKSIYPDWTAALESDPVVKLIELAAYDEVRFRARVNDAGRAVLLAYSTGADLEHLAVLWNLQRETVDPGDPEAHPPVPATRERDERLRLRTQMGIERSSTAGPFGAYRSLAMDASPDVADVRVDRPEAGVVRVVVKSYSNGGVASAALLDTVRRALSPEDRRPLNDSLLVVAARPVNYAIVADVYIGRGPDPGVVLAARRQDLDIAVAAGEALRVGMPRSAVTGALHPKASGVVRVDLKLPAADVVCAIDQFARCTSIVLNPKVADDD | not soluble |
| MGSDKIHHHHHHMDPRLLPLLSCPRHPTVTLTVEQVERVVNGAIVSGRLRCPVCATTYLIKDGILDMIGQHRPTSAAQVVNEVPVAAWAYERTWRPFALSLLSGEQFPLTRELKLITGLAGAERGGLMVDVGCSNGLYARALEHVRRQRGAGGFVVGIDLSMAMLQEAQRRARHEGLSISFIRASAQAMPFADGTVDALVMGGSLNEIGDIPAALSEWRRLLSPQGRGVMMSLVAASTPIGQGIQQLLASGGLQFPSLAELNHYFTAAGLRLRAQWQYGIVVFSVLQ | not soluble |
| MESKAKTTVTFHSGILTIGGTVIEVAYKDAHIFFDFGTEFRPELDLPDDHIETLINNRLVPELKDLYDPRLGYEYHGAEDKDYQHTAVFLSHAHLDHSRMINYLDPAVPLYTLKETKMILNSLNRKGDFLIPSPFEEKNFTREMIGLNKNDVIKVGEISVEIVPVDHDAYGASALLIRTPDHFITYTGDLRLHGHNREETLAFCEKAKHTELLMMEGVSISFPEREPDPAQIAVVSEEDLVQHLVRLELENPNRQITFNGYPANVERFAKIIEKSPRTVVLEANMAALLLEVFGIEVRYYYAESGKIPELNPALEIPYDTLLKDKTDYLWQVVNQFDNLQEGSLYIHSDAQPLGDFDPQYRVFLDLLAKKDITFVRLACSGHAIPEDLDKIIALIEPQVLVPIHTLKPEKLENPYGERILPERGEQIVL | soluble |
| MIISDKFSLEAMCATTITDVKAGDEIILYGQKLTDENSCVTIKTDRVDIISSGNFIKYPNSTDIYDFDNKIDEWSFIIVEGVVNGNTIELNDKSTF | not soluble |
| GMASSGTEHDAMRARLVDVAQAIVEERGGAGLTLSELAARAGISQANLSRYFETREDLMEAIADYWFHPMVEIMEDVLASDLPPRRKMYEFFARRFVVMRRKWEADPVKLQTYIEVGNDYFEQVRSYIDLADHYLGEIIGEAMSDGAFSGLEVDETISLVNQMCAPYCALNTMTTFMERLSEDKLARIVDAVFDGLSAQDRGARSLTGLRAA | soluble |
| MGSDKIHHHHHHMRIEITPISESALVCRLNAPSELGKQQKLWAFAAALGQHDRIEEVVVGMNNLTVFTRFDTDLATLADELQYVWEHTAVTDHQGKLVEIPVCYGGEYGPDLAEVAAFHQTVISEIVRRHTAQTYTVFMMGFQPGFPYLGGLPEALHTPRRAVPRTSVPAGSVGIGGSQTGVYPFASPGGWQIIGRTELPLFRADLNPPTLLAAGDQVRFVAERIEP | not soluble |
| MGSDKIHHHHHHMTDRVLILGGRGRIGSSVAQDLANHTQAQITITGRSAEFGKAVSLSSGGQVQFLVLDLVEVDKLQNAIANSNLVIHCAGPFHYRDTNVLETCIAQGVNYVDVSDHRSYTSKALNFSEQAAAAGVTAIINTGIFPGISNSMVRQGVEQFDKPENIHLSYLVSGSGGAGITVMRTTFLGLQYPFETWIDGKWQVIKPYSERELVEFPPPYGRSGVYWFDMPETFTLPKAFPSVKTVITKFGSVPDFYNHLTWIAAHIFPKWLMQRRYMIEFLSHVSHSMTDVTNNFSGIGVAVRSEVTGQKDGKTAVYCSTVVHENTALASGCGTGSIAQLLLEGKLKKPGVFAVEEALPTDLFEEVMQSRGIKINHSWL | not soluble |
| MTASDSAADETGDLRHEAHAWVISLTSGRVTQGDARAFRQWCARSPQHLRAFVEARDLWQALGSAAALPLEPPAVAQIAPRRFGRRWFVGGALAASVALFVLRPSLLDHGLGGADYVTAVGEQRQVQVSGETRIEMNTRTRLNVRRNQEQQETIELLGGEAEIIASHPPQSSLRVMAGSAWLSASRARFNVRSSGDVCVVTCLEGSVRLEHLGQRLDLQAGQQLTFDERRNGPPVPFDVAEVMAWRERMLVFNDVPLATVIDEINRYRPGMLLLLDKALGRRRVQARFSLDQLADVATLIRDAYGIEVTRLPGGVVLLG | not soluble |
| GPGSMLAAVAVPSSSSSTAPGTNTAVSDYFLQKIHELRATQKRTLDNFERLEAQRNDLNRRVRHLKEEVQMLQESGSLVVDVVRVMGKNKVLVKAGSGQGKMVVDVDKSVDFKDLTPNARVALRSGTSAIHYILPTKVDPLVSLMKVEKAGKESTYDEIGGLSRQVKEIKEVIELPVKHPKLFEALGIEQPKGVLLYGPPGTGKTLLARAVAHHTDCTFIRVSGAELVQKYIGEGARMVRELFVMAREHSPSIIFMDEIDSIGSSRLESGENGDSEVQRTMLELLNQLDGFEASKNIKVIMATNRMDILDEALLRPGRIDRKIEFPAPDEAARFEILKIHSRKMNLTRGIDLKDIAKKTSNCSGAELKAVCTEAGMFALRERRVHITHEDFVLAVAKVMHKDQDKNVSLKKMWK | not soluble |
| MGSDKIHHHHHHMVDCDRIDRLIAAVPPALALRAGLDLGIFTRLGGDAATADSLGAALKVEPDRLSRLLYALASIDLLEVKDGQFRNGAEASAFLDASKPTYRGGDHALLRELWGADLLTAESLRQNRPAALHDFSEAGPEAAAAFSRMLAPGGVIFGRHLAREIDLSAIGSVIDIGGGAGTILVGLRERRRQIAATLMELPTVAAVAPAILSEYGADDVIVEEGDITVAPSIGRHDLAILKAVVQVLPPDQARNAILNAARCLTPGGEIAIAGWGVVDDDRLGPSEGVFLNLTFLNLYRHGESYTEGQYRAWMTEAGFRNISRSRLTDGTALFRGRLTD | not soluble |
| MSLGELNVATVTRRPEILLVDSQEVILQRLQQLLSPLPYTLHFARDATQALQLLASREVDLVISAAHLPQMDGPTLLARIHQQYPSTTRILLTGDPDLKLIAKAINEGEIYRYLSKPWDDQELLLALRQALEHQHSERERLRLQDLAQQQNAELKALNTLLEKRVAARTSELQQTADMLDLAYEELKPSYATGAELFSLLVNQRLPADKQTNRRIIELVRAYCKVQGIDPGAQRDLAMAAALHNIGKLSWSDSMMTSPADLLHHHQRERYRAYPAQSESLLMTLEPVQDAARLIRHHQEHWDGSGFPDHLKGDAIPLGSRLLKLAVDFIELQCGLILERHMNSDEALVFIRKYAGRLYDPDLVEGFIQVCAVYLSDVTLGDPSVKVLSTRELAAGMILARNLNADNGMLLLNAGKVLNLPLVDKLIAFETMEGARYSVFVKLPQEQQARAEGHHHHHH | not soluble |
| MRHVISVLVQDHPRVLNRITGLFARRGFNLESLAVGTTHQPGLSRICLVVSGDDRTLEQVEKQLNRLIEVLKVTDHTEPHVERELCLVKVHVAGLEERLAVKDIQEAFRARVVDVAQKSLILELTGDTQKVNSFIEALRPYGILEVMRTGAVAMSRGDRVLKVREKKEAV | soluble |
| QLPSYRFNPNNHQSEQTLCVVCMCDFESRQLLRVLPCNHEFHAKCVDKWLKANRTCPICRAD | soluble |

From the DeepSol protein solubility set
